We go through four molecules from article PMC5958137, “Calreticulin and integrin alpha dissociation induces anti-inflammatory programming in animal models of inflammatory bowel disease” (Nature Communications, 2018).

Assay [1] deals with T1, Calreticulin (CRT) (Homo sapiens, UniProt P27797).
T1 sequence (P27797 18-417): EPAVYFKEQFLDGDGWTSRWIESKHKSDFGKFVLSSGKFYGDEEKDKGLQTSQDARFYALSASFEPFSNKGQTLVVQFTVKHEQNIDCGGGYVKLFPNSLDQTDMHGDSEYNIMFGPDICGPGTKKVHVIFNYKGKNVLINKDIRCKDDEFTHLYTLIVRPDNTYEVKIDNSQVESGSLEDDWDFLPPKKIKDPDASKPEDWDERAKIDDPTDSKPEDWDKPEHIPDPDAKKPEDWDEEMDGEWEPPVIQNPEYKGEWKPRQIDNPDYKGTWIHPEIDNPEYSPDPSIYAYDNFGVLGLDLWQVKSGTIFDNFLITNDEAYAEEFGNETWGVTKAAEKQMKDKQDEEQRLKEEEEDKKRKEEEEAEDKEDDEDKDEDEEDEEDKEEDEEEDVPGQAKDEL
In words: 1D 1H NMR ligand line broadening with CRT; […]-HSQC of ITGA4 peptide shows displacement from CRT. Format: binding. More on the design: gene CALR; Human CRT, His-tag fusion protein (pET-19b), expressed in E. coli.

Assay [2] concerns the target T1, Calreticulin (CRT). In words: cell-free plate assay of biotinylated ITGA peptide (KAGFFKR) binding to purified CRT; supported by GST-CRT pull-down. More on the design: gene CALR.
Assay [3] concerns the target T2, CRT (>90% pure) used for surface plasmon resonance (human, UniProt P27797 18-417).
T2 chain: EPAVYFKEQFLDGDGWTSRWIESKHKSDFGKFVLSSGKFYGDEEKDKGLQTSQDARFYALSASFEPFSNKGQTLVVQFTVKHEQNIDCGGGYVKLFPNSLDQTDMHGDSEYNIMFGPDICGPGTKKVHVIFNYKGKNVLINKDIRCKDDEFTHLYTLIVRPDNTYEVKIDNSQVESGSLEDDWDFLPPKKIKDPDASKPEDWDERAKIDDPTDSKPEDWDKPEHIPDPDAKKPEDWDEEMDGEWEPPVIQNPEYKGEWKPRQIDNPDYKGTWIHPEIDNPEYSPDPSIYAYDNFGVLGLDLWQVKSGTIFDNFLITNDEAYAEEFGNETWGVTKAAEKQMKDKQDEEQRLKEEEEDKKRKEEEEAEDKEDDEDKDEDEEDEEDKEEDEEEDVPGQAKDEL
In words: SPR.

The target in assay [4] is T2, CRT (>90% pure) used for surface …. In words: SPR. For orientation: Surface plasmon resonance follows binding to a sensor surface in real time, without labels.
Assay [5] deals with T3, Human CRT protein, His-tag fusion protein (pET-19b) (human, UniProt P27797 18-417).
T3 construct: calreticulin (CRT), human; Surmise: pET-19b adds an N-terminal His tag; also called calreticulin; source: E. coli BL21, purified (Ni-NTA agarose, Superdex 75), >90% pure
T3 sequence (looked up): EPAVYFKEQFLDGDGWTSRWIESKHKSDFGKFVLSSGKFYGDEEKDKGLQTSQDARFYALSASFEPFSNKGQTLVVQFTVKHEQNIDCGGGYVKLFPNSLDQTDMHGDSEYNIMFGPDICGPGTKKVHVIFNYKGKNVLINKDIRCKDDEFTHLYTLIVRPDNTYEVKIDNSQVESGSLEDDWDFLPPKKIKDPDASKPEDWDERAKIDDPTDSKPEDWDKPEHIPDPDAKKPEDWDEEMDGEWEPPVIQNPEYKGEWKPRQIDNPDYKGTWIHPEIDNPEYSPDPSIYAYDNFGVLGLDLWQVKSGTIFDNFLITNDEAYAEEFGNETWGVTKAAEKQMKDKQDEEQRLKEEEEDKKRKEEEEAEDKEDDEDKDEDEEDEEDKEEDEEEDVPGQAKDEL
In words: NMR titration; two-dimensional 15N-HSQC, 4 μM 15N-ITGA4 with 4 μM CRT, 20 mM PB pH 5.5, 10% D2O, 303 K, 700 MHz. The settings on record: both partners purified.

Structures can show the parent of a compound that is named as a salt. Ends that are not written are not given here. * marks the point of attachment. Biotin = O=C1N[C@H]2[C@H](CS[C@H]2CCCCC(=O)*)N1

`CC1(C)CC(c2ccccc2N2CCN(CC3CC3)CC2)CC(C)(C)C1` [ER-339093-13, 1-(cyclopropylmethyl)-4-[2-(3,3,5,5-tetramethylcyclohexyl)phenyl] piperazine methanesulfonate]: the “1D 1H NMR ligand line broadening with CRT; 15N-HSQC of ITGA4 peptide shows displ” value at Calreticulin (CRT) [1] is on record as “notable line broadening of the ER-339093-13 signal was observed upon the addition of CRT”.

For `CCCN1CCN(c2ccccc2C2CC(C)(C)CC(C)(C)C2)CC1` [ER-464195-01, 1-propyl-4-[2-(3,3,5,5-tetramethylcyclohexyl)phenyl] piperazine hydrochloride], the IC50 (usually the concentration that inhibits the measured activity by half) at Calreticulin (CRT) [2] worked out at 170 nM. For Biotin-KAGFFKRQYKSILQEENRRDSWSYINSKSNDD [N-terminally biotinylated intracellular domain of the ITGA4 peptide], in assay [3], the koff (in general, the first-order rate constant of dissociation) worked out at 0.00388 s⁻¹. For the same molecule, the Kd (usually the equilibrium constant for the complex coming apart) in assay [4] turned out to be 250 nM.

B1: uniformly 15N-labeled intracellular domain of ITGA4 (domain or fragment)
chain: KAGFFKRQYKSILQEENRRDSWSYINSKSNDD
modifications: also: uniformly 15N-labeled
notes: intracellular domain of integrin α4 (ITGA4), cloned BamHI-EcoRI into pGEX-2T; Surmise: thrombin cleavage of a pGEX-2T fusion leaves a few residues of the vector at the N-terminus; also called 15N-ITGA4; ITGA4 peptide
For B1, the binding result in assay [5] is recorded as “binds”.
